T1: MBP-GLK1 fusion protein (Golden2-like transcription factor GLK1, full length) (Arabidopsis thaliana, UniProt Q9SIV3 1-420)
T1 sequence (looked up): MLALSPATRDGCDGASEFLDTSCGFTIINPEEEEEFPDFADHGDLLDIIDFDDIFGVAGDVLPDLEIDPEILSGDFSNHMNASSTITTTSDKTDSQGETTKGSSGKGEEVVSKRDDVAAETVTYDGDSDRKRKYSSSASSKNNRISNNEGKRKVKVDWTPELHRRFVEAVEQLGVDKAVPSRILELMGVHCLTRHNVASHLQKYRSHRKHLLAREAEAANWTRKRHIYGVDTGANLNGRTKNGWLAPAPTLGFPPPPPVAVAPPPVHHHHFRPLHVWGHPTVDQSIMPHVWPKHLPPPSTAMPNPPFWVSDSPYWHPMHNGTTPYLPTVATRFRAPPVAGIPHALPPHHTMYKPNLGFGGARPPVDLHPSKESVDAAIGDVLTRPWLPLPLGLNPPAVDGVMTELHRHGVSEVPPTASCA

T2: MBP-GLK2 fusion protein (Golden2-like transcription factor GLK2, full length) (Arabidopsis thaliana, UniProt Q9FFH0 1-386)
T2 sequence (looked up): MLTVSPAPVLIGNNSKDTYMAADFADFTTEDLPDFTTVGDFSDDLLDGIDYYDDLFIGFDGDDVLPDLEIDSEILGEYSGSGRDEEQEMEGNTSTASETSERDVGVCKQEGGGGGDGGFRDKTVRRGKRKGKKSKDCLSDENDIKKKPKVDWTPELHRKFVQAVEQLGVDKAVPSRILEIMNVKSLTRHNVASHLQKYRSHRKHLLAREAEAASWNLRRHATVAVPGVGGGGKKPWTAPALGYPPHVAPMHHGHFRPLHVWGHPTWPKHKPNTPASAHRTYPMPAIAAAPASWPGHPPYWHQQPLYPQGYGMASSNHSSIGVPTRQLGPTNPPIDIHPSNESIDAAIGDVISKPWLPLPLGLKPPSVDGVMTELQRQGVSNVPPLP


Key:
[1] = target: T1, MBP-GLK1 fusion protein (Golden2-like …); assay: pull-down
[2] = target: T2, MBP-GLK2 fusion protein (Golden2-like …); assay: pull-down

Binder | binding result [1] | binding result [2]
GST-GBF1 fusion protein (G-box Binding Factor 1, full length) (natural protein, Arabidopsis thaliana, UniProt P42774 1-315, looked up) MGTSEDKMPFKTTKPTSSAQEVPPTPYPDWQNSMQAYYGGGGTPNPFFPSPVGSPSPHPYMWGAQHHMMPPYGTPVPYPAMYPPGAVYAHPSMPMPPNSGPTNKEPAKDQASGKKSKGNSKKKAEGGDKALSGSGNDGASHSDESVTAGSSDENDENANQQEQGSIRKPSFGQMLADASSQSTTGEIQGSVPMKPVAPGTNLNIGMDLWSSQAGVPVKDERELKRQKRKQSNRESARRSRLRKQAECEQLQQRVESLSNENQSLRDELQRLSSECDKLKSENNSIQDELQRVLGAEAVANLEQNAAGSKDGEGTN | binds | binds
GST-GBF3 fusion protein (G-box Binding Factor 3, full length) (natural protein, Arabidopsis thaliana, UniProt P42776 1-382, looked up) MGNSSEEPKPPTKSDKPSSPPVDQTNVHVYPDWAAMQAYYGPRVAMPPYYNSAMAASGHPPPPYMWNPQHMMSPYGAPYAAVYPHGGGVYAHPGIPMGSLPQGQKDPPLTTPGTLLSIDTPTKSTGNTDNGLMKKLKEFDGLAMSLGNGNPENGADEHKRSRNSSETDGSTDGSDGNTTGADEPKLKRSREGTPTKDGKQLVQASSFHSVSPSSGDTGVKLIQGSGAILSPGVSANSNPFMSQSLAMVPPETWLQNERELKRERRKQSNRESARRSRLRKQAETEELARKVEALTAENMALRSELNQLNEKSDKLRGANATLLDKLKCSEPEKRVPANMLSRVKNSGAGDKNKNQGDNDSNSTSKLHQLLDTKPRAKAVAAG | binds | binds
GST-GBF2 fusion protein (G-box Binding Factor 2, full length) (natural protein, Arabidopsis thaliana, UniProt P42775 1-360, looked up) MGSNEEGNPTNNSDKPSQAAAPEQSNVHVYHHDWAAMQAYYGPRVGIPQYYNSNLAPGHAPPPYMWASPSPMMAPYGAPYPPFCPPGGVYAHPGVQMGSQPQGPVSQSASGVTTPLTIDAPANSAGNSDHGFMKKLKEFDGLAMSISNNKVGSAEHSSSEHRSSQSSENDGSSNGSDGNTTGGEQSRRKRRQQRSPSTGERPSSQNSLPLRGENEKPDVTMGTPVMPTAMSFQNSAGMNGVPQPWNEKEVKREKRKQSNRESARRSRLRKQAETEQLSVKVDALVAENMSLRSKLGQLNNESEKLRLENEAILDQLKAQATGKTENLISRVDKNNSVSGSKTVQHQLLNASPITDPVAAS | binds | binds

From paper doi:10.1101/2022.09.09.507346 (bioRxiv, 2022)
